# Source: patent US20030219427A1, “TPL-2/COT kinase and methods of use” (priority 1998, published 2003)
# * marks the point of attachment. Biotin = O=C1N[C@H]2[C@H](CS[C@H]2CCCCC(=O)*)N1
# T1: HA-p105(369-969) (Homo sapiens (Human), UniProt P19838 368-968)
# T1 construct: also called p105?N
# T1 sequence: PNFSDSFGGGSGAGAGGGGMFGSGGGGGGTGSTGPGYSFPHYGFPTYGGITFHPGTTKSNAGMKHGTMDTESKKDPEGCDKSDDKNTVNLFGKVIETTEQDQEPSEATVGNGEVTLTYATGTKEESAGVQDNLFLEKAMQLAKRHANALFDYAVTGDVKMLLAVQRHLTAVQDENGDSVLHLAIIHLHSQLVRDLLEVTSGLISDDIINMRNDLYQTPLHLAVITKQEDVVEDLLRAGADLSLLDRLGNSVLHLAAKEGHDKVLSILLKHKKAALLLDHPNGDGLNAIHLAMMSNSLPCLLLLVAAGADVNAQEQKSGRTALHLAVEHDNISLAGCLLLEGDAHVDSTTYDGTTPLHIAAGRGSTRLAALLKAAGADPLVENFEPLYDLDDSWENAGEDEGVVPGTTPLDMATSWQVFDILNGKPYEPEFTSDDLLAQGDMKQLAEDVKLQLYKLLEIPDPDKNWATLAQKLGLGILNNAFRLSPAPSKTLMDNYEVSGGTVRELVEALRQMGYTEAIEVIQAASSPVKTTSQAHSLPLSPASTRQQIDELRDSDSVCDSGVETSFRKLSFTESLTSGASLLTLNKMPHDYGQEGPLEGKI
# T2: endogenous p105 (mouse 3T3 fibroblasts) (mouse, UniProt P25799 1-971)
# T2 sequence (looked up): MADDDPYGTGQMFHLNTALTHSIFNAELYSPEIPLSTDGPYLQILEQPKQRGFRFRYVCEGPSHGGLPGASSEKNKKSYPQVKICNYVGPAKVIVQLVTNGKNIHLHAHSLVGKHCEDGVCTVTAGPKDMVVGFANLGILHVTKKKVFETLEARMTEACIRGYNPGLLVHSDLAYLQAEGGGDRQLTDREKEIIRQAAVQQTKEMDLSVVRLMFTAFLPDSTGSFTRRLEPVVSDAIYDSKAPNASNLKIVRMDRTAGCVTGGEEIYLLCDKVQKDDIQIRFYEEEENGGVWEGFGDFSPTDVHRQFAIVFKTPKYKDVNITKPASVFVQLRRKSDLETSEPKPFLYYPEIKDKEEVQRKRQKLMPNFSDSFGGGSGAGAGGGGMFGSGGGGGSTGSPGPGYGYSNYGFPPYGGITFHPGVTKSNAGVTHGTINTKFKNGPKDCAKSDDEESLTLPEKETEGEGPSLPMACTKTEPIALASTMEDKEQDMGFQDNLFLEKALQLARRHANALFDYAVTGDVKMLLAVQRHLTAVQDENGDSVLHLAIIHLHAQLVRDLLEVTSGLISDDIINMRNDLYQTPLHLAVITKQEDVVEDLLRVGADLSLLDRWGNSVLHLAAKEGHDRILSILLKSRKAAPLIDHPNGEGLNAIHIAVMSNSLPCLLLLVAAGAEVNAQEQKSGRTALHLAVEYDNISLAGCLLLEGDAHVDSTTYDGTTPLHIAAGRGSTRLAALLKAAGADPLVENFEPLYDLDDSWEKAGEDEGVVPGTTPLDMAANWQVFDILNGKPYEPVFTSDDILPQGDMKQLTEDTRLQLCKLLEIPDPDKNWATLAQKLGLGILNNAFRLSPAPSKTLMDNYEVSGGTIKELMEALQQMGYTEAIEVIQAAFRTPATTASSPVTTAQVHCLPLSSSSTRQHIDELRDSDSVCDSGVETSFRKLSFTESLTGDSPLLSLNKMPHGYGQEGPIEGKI
# T3: recombinant p105 541-802 (Homo sapiens (Human), UniProt P19838 540-801)
# T3 construct: Made in E. coli as a GST fusion and cleaved from GST
# T3 sequence: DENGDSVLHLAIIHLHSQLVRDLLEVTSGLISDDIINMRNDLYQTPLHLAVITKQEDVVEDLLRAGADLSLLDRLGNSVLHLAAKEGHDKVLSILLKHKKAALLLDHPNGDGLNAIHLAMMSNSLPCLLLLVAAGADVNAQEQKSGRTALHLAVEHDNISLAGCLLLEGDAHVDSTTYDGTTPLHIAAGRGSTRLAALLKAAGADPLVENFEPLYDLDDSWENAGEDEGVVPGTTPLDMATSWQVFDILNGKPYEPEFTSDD
# B1: COT(131-411) (enzyme, not shown: small tags and cut ends)
# chain: PWKLTYRNIGSDFIPRGAFGKVYLAQDIKTKKRMACKLIPVDQFKPSDVEIQACFRHENIAELYGAVLWGETVHLFMEAGEGGSVLEKLESCGPMREFEIIWVTKHVLKGLDFLHSKKVIHHDIKPSNIVFMSTKAVLVDFGLSVQMTEDVYFPKDLRGTEIYMSPEVILCRGHSTKADIYSLGATLIHMQTGTPPWVKRYPRSAYPSYLYIIHKQAPPLEDIADDCSPGMRELIEASLERNPNHRPRAADLLKHEALNPPREDQPRCTSLDSALLERKRL
# notes: also called TPL-2 (131-411)
# B2: endogenous TPL-2 (mouse 3T3 fibroblasts) (enzyme, UniProt Q07174 1-467, looked up)
# chain: MEYMSTGSDEKEEIDLLIKHLNVSEVIDIMENLYASEEPGVYEPSLMTMYPDSNQNEERSESLLRSGQEVPWLSSVRYGTVEDLLAFANHVSNMTKHFYGRRPQECGILLNMVISPQNGRYQIDSDVLLVPWKLTYRNIGSGFVPRGAFGKVYLAQDMKTKKRMACKLIPIDQFKPSDVEIQACFRHENIAELYGAVLWGDTVHLFMEAGEGGSVLEKLESCGPMREFEIIWVTKHILKGLDFLHSKKVIHHDIKPSNIVFMSTKAVLVDFGLSVKMTEDVYLPKDLRGTEIYMSPEVILCRGHSTKADIYSLGATLIHMQTGTPPWVKRYPRSAYPSYLYIIHKQAPPLEDIAGDCSPGMRELIEAALERNPNHRPKAADLLKHEALNPPREDQPRCQSLDSALFERKRLLSRKELQLPENIADSSCTGSTEESEVLRRQRSLYIDLGALAGYFNIVRGPPTLEYG
# B3: biotinylated TPL-2398-467 peptide (peptide)
# peptide: C(Biotin)TSLDSALLERKRLLSRKELELPENIADSSCTGSTEESEMLKRQRSLYIDLGALAGYFNLVRGPPTLEYG
# notes: Immobilized on a streptavidin-coated BIAcore sensor surface; also called TPL-2 peptide; TPL-2 C-terminus
# B4: TPL-2398-467 peptide: synthetic peptide corresponding to the C-terminal 70 amino acids of TPL-2 (peptide)
# peptide: CTSLDSALLERKRLLSRKELELPENIADSSCTGSTEESEMLKRQRSLYIDLGALAGYFNLVRGPPTLEYG
# B5: p105541-802: recombinant p105 protein, residues 541-802 (protein)
# chain: T3 sequence
# B6: recombinant p105498-969 protein (other)
# chain: QDNLFLEKAMQLAKRHANALFDYAVTGDVKMLLAVQRHLTAVQDENGDSVLHLAIIHLHSQLVRDLLEVTSGLISDDIINMRNDLYQTPLHLAVITKQEDVVEDLLRAGADLSLLDRLGNSVLHLAAKEGHDKVLSILLKHKKAALLLDHPNGDGLNAIHLAMMSNSLPCLLLLVAAGADVNAQEQKSGRTALHLAVEHDNISLAGCLLLEGDAHVDSTTYDGTTPLHIAAGRGSTRLAALLKAAGADPLVENFEPLYDLDDSWENAGEDEGVVPGTTPLDMATSWQVFDILNGKPYEPEFTSDDLLAQGDMKQLAEDVKLQLYKLLEIPDPDKNWATLAQKLGLGILNNAFRLSPAPSKTLMDNYEVSGGTVRELVEALRQMGYTEAIEVIQAASSPVKTTSQAHSLPLSPASTRQQIDELRDSDSVCDSGVETSFRKLSFTESLTSGASLLTLNKMPHDYGQEGPLEGKI
# Columns and labels:
# [1] = target: endogenous NF-κB1 p105 (HeLa, Jurkat and 293 cells) (UniProt P19838); assay: cell-based or functional assay
# HA-p105(369-969) = target: T1, HA-p105(369-969); assay: co-expression in HEK293 cells, isolation of the complex from lysates
# [2] = target: T2, endogenous p105 (mouse 3T3 fibroblasts); assay: anti-TPL-2 immunoprecipitation from lysates of wild type mouse 3T3 fibroblasts, Western blot
# Experimental: (5.5.c) To determine whether p105 regulates the steady-state levels of endogenous TPL-2 protein, cell lysates were prepared from 3T3 fibroblasts derived from wild type and NF-κB1-deficient mice. TPL-2 was readily detected by Western blotting of anti-TPL-2 immunoprecipitates from wild type fibroblasts and was associated with endogenous p105.
# recombinant p105 541-802 = target: T3, recombinant p105 541-802; assay: surface plasmon resonance (BIAcore), biotinylated peptide on streptavidin chip
# Experimental: (§1) Interaction between the TPL-2 C-terminus and recombinant p105 proteins was measured by surface plasmon resonance using the BIAcore system (BIAcore AB, Uppsala, Sweden; (Szabo, A., et al. (1995) Curr. Opin. Struct. biol. 5: 699-705)). The C-terminal 70 amino acids of TPL-2 (TPL-2₃₉₈₋₄₆₇) were synthesised as a biotinylated peptide (conjugated to the equivalent of Cys398 of full length TPL-2) and immobilized on a Streptavidin-coated sensor surface (Sensorchip SA, BIAcore AB). Recombinant p105 proteins were then injected at different concentrations and resonance signals monitored. Dissociation at 25° C. was measured by flushing the TPL-2/p105 complexes with HBS-P buffer (10 MM HEPES-pH7.4, 150 mM NaCl, 0.005% (v/v) polysorbate 20; BIAcore AB). Data were evaluated using BIAevaluation software, version 3.0.2.
# [3] = target: T4, Myc-TPL-2ΔC MEK kinase activity (Rattus norvegicus, UniProt Q63562); assay: In vitro MEK kinase assay with GST-MEK1(K207A) substrate, Myc-TPL-2ΔC; format: biochemical
# T4 construct: TPL-2ΔC which lacks the C-terminal 70 amino acids; made in house; host or cells: HEK 293 cells, transient transfection, anti-Myc immunoprecipitation
# Experimental: Myc-TPL-2 or Myc-TPL-2ΔC were isolated by immunoprecipitation from lysates of transiently transfected 293 cells, as described above. immunoprecipitates were washed four times in Buffer A, followed by two washes in kinase buffer (50 mM Tris-pH7.5, 150 mM NaCl, 5 mM β-glycerophosphate, 2 mM dithiothreitol, 0.1 mM sodium vanadate, 10 mM MgCl2, 1 mM EGTA, 0.01% Brij35). Beads were then resuspended in 50μl of kinase buffer plus the indicated amounts of recombinant p105 protein and incubated at 4° C. for 30 min. […] The supernatant was removed, mixed with an equal volume of 2×sample buffer, Western blotted after 8%-acrylamide SDS-PAGE and probed with anti-phospho-MEK-½ antibody. Immunoprecipitated Myc-TPL-2 or Myc-TPL-2ΔC was eluted with Laemlli sample buffer from the remaining anti-Myc mAb beads and quantified by Western blotting.
# (5.6.c) The inhibition of TPL-2 MEK kinase activity by p 105498-969 may be more efficient than the isolated p105 DD as the former protein contains a binding site for the TPL-2 C-terminus. It was, therefore, interesting to determine the sensitivity of TPL2ΔC catalytic activity to inhibition by p105. The specific activity of Myc-TPL-2ΔC, isolated by immunoprecipitation from transfected 293 cell lysates, was modestly (approximately 2-3 fold) increased relative to wild type Myc-TPL-2.
# [4] = target: T5, TPL-2 C-terminus (TPL-2398-467 peptide) (Rattus norvegicus, UniProt Q63562); assay: Surface plasmon resonance (BIAcore) binding to immobilized TPL-2 C-terminal peptide; details: biotinylated TPL-2398-467 on Streptavidin sensor surface, 25° C.
# T5 construct: a synthetic peptide corresponding to the C-terminus of TPL-2 (residues 398-467); made in house; host or cells: chemical peptide synthesis
# Experimental: as §1, with “(TPL-2398-467)” for “(TPL-2₃₉₈₋₄₆₇)”
# (5.3.b) In order to obtain corroborating evidence for the TPL-2 C-terminus binding site on p105, surface plasmon resonance experiments were carried out using the panel of recombinant p105 proteins including p105 1-969, p105 498-969, p105 498-806, p105 497-782 and p105 541-802.
# Myc-TPL-2 = Myc-TPL-2 (Homo sapiens (Human), UniProt P41279 1-467); assay: cell-based or functional assay
# Myc-TPL-2ΔC = Myc-TPL-2ΔC (Homo sapiens (Human), UniProt P41279 1-397); assay: cell-based or functional assay
# [5] = target: T6, Myc-Raf1(CAAX) MEK kinase activity (Homo sapiens, UniProt P04049); assay: In vitro MEK kinase assay, activated Raf1; format: biochemical
# T6 construct: CAAX membrane-targeting motif (C); made in house
# T4 sequence (Q63562 1-397, stated change not applied): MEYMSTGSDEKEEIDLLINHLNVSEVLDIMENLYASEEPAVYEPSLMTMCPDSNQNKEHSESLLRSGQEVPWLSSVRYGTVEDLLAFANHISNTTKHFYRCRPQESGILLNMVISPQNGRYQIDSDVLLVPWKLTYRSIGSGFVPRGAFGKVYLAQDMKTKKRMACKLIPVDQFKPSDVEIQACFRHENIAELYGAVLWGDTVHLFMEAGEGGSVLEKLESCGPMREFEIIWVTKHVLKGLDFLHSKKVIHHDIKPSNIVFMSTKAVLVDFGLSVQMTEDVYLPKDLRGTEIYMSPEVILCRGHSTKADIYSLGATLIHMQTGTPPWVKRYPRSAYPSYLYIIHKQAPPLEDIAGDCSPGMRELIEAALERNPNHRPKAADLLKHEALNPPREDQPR
# T5 sequence (Q63562 398-467): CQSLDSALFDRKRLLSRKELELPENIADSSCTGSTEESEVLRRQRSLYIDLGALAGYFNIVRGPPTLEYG
# Myc-TPL-2ΔC, sequence (P41279 1-397, stated change not applied): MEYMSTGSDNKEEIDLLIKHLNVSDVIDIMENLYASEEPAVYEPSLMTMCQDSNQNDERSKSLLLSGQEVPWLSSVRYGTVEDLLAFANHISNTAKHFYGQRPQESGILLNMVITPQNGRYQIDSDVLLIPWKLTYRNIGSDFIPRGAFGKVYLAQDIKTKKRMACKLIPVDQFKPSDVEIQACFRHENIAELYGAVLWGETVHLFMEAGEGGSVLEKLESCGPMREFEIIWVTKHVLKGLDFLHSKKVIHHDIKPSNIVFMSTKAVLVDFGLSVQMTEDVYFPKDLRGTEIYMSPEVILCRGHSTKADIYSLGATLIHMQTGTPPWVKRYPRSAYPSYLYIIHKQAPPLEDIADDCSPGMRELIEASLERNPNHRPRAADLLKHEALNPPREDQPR
molecule,measurement,setting,value
TPL-2ΔC (from UniProt P41279 1-397),NF-κB-dependent luciferase reporter gene in Jurkat T cells,[1],12 fold
B1,binding result,HA-p105(369-969),binds
B2,binding result,[2],binds
B3,binding result,recombinant p105 541-802,no binding
B4,effect on TPL-2ΔC in vitro MEK kinase activity,[3],not found to affect
B5,binding to the TPL-2 peptide (affinity constants),[4],did not detectably bind
B6,IC50 of inhibition of TPL-2 MEK kinase activity (phosphorylation of GST-MEK1(K207A) in vitro),Myc-TPL-2,90 nM
same,IC50 of inhibition of TPL-2ΔC MEK kinase activity in vitro,Myc-TPL-2ΔC,1000 nM
same,effect on Myc-Raf1(CAAX) MEK kinase activity,[5],unaffected
